{
  "source": "patent US20240425607A1",
  "about": "“IL-18BP ANTAGONIST ANTIBODIES AND THEIR USE IN MONOTHERAPY AND COMBINATION THERAPY IN THE TREATMENT OF CANCER” (Compugen Ltd., priority 2023, published 2024)",
  "molecules": {"B1": {"name": "ADI-71722: anti-IL18-BP antibody, sequences in FIG. 2D; 66670 lineage (antibody, V domains shown)", "VH": "QVQLVQSGAEVKKPGSSVKVSCKASGGTFSEYPISWVRQAPGQGLEWMGGIIPGAGTAIYAQKFQGRVTITADESTSTAYMELSSLRSEDTAVYYCARGRHFHETWGQGTLVTVSS", "VL": "DIQMTQSPSSVSASVGDRVTITCRASQGISSWLAWYQQKPGKAPKLLIYAASSLQSGVPSRFSGSGSGTDFTLTISSLQPEDFATYYCQQVYRFPWTFGGGTKVEIK"}, "B2": {"name": "ADI-66716: anti-IL18-BP antibody, sequences in FIG. 2N; parental (antibody, V domains shown)", "VH": "QLQLQESGPGLVKPSETLSLTCTVSGGSISSSDYYWGWIRQPPGKGLEWIGSIYYSGSTYYNPSLKSRVTISVDTSKNQFSLKLSSVTAADTAVYYCARGPHRQVFDYWGQGTLVTVSS", "VL": "B1 VL with V91G, Y92S, R93S, W96Y"}, "B3": {"name": "anti-PVRIG: Anti PVRIG mAb 407 mAb mouse IgG1, BOJ-5G4-F4 (antibody, V domains shown)", "VH": "QVQLQQSGAELAKPGSSVMISCKASGYTFTNYAVHWIKQTTGQALEWTGYIAPGSGVTKYNEKFKGKATLTVDKSSTTAYMQLSSLTPVDTAVYYCASGTTRFAYWGQGTLVTVSS", "VL": "DIVLTQSPALAVSLGQRATISCRASQSVSLSSYNLMQWYQQKPGQEPKILIYDASNLPSGIPARFSGSGSGTDFTLTIDPVQADDIATYYCQQSKDDPLTFGSGTKLEIK"}, "B4": {"name": "ADI-71709: anti-IL18-BP antibody, sequences in FIG. 2A; 66650 lineage (antibody, V domains shown)", "VH": "QVQLVQSGAEVKKPGASVKVSCEASGYTFDIYAVHWVRQAPGQRLEWMGWIHAGTGATKYSQKFQGRVTITRDTSASTAYMELSSLRSEDTAVYYCARGLGEVGPTGTSWFDPWGQGTLVTVSS", "VL": "DIQMTQSPSTLSASVGDRVTITCRASQSISSWLAWYQQKPGKAPKLLIYEASSLESGVPLRFSGSGSGTEFTLTISSLQPDDFATYYCQQYRQSPFTFGGGTKVEIK"}},
  "key": {"[1]": {"assay": "SEC-HPLC % monomer", "format": "physicochemical", "conditions": "optimized antibodies", "description": "A TSKgel SuperSW mAb HTP column (22855) was used for fast SEC analysis of mammalian produced mAbs at 0.4 mL/min with a cycle time of 6 min/run. 200 mM Sodium Phosphate and 250 mM Sodium Chloride was used as the mobile phase."}, "[2]": {"target": "T1, human IL18BP-Fc binding to human IL-18 (Homo sapiens, UniProt O95998)", "T1 sequence (O95998 31-194)": "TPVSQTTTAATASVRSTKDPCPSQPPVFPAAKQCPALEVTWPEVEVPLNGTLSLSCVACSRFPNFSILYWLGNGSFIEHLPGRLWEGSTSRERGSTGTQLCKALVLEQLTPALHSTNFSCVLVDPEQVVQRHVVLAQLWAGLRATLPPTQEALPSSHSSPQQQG", "assay": "Blocking of hIL18BP-hIL-18 interaction by ELISA, IL18BP plate bound", "conditions": "1 ng/ml human IL-18, compared with clone W19089C", "description": "This assay was utilized to identify anti-human IL18BP Abs that inhibit the binding interaction between human IL18BP- and its counterpart, human IL-18. […] Human IL18BP-Fc protein was coated on the wells of a high binding plate overnight at 4° C. (1 μg/ml, 100 μl/well volume). Plates were washed three times with PBS-T buffer (1×PBS pH 7.4, 0.05% Tween20) incubated with 250 μL blocking buffer (2.5% skim milk in PBS) at room temperature (RT) for 2 hr. Blocking buffer was removed and plates were washed three times with PBS-T buffer. Plate-bound ligands were incubated with anti-human IL18BP Abs in 1% BSA in PBS buffer two times serially diluted (2.5-0.019 μg/ml, 100 μL/well volume) at RT for 1 h. Plates were washed one time with PBS. Plate-bound ligands were incubated with human IL-18 (cat. 9124-IL, R&D) in 1% BSA in PBS buffer (1 ng/ml, 100 μL/well volume) at RT for 1 h. Plates were washed three times with PBS-T (0.05% Tween20 in PBS). Biotinylated anti-IL18 detection antibody, cat. D045-6, R&D 1:1000 in 1% BSA in PBS buffer was added (100 μL/well). This was incubated at RT for 1 hr, and plates were washed again. Peroxidase Streptavidin, Jackson, cat. 016-030-084 1:1000 in 2.5% skim milk in PBS was added (100 μL/well) for 1 hr at RT. […] The HRP reaction was stopped by adding 50 μL 1N HCl and absorbance signals at 450 nm were read on a luminescence Reader-EnSpire (Perkin Elmar). […]"}, "[3]": {"target": "T2, recombinant human IL18-BP (Homo sapiens, UniProt O95998)", "T2 construct": "purchased R&D systems 119-BP", "T2 sequence (O95998 31-194)": "T1 sequence (O95998 31-194)", "assay": "MEL624:TIL assay", "format": "cell-based", "conditions": "rhIL-18 30 ng/ml + rhIL-18BP 1 μg/ml, vs isotype control", "description": "Human MEL624 cells were thawed and grown in DMEM with 10% FBS, 1% Glutamax, 1% Penicillin-Streptomycin Solution and 1% HEPES buffer. The cells were then seeded at 75 k cells/well in a 96 well plate in the assay medium (IMDM with 10% human serum, 1% Glutamax, 1% MEM eagle, 1% Sodium Pyruvate and 1% Penicillin-Streptomycin Solution) and incubated 1 hour in 37° C., 5% CO2 incubator before co-culture with human tumor infiltrating lymphocytes that were previously expanded using known melanoma antigens (TILs). Human TILs were thawed in full TIL media and 75 k cells/well were co-cultured with the MEL624 cells to create an effector: target ratio of 1:1. The co-cultured cells were then treated with rhIL-18 (30 ng/ml) and rhIL-18BP (1 μg/ml) for 30 min in 37° C., 5% CO2 incubator to allow IL-18:IL-18BP complex formation. After 30 minutes, anti-human IL-18BP mAb (ADI-71722, dose titration, 30 μg/ml-0.01 μg/ml, dilution factor of 1:3) or relevant isotype control (hIgG1 30 μg/ml) were added to the co-culture to examine its capability to restore IL-18 activity. Cells and all added solutions were prepared in full assay medium to a final volume of 200 μl/well. Plates were incubated for 24 hours in 37° C., 5% CO2 incubator, after which the supernatant was collected for cytokine secretion evaluation. All tests were done in triplicates and each repeated with TIL four donors. […]"}, "[4]": {"assay": "Fab Tm by dynamic scanning fluorimetry (DSF)", "format": "physicochemical", "conditions": "optimized antibodies", "description": "10 μL of 20× Sypro Orange is added to 20 μL of 0.2-1 mg/mL mAb or Fab solution. A RT-PCR instrument (BioRad CFX96 RT PCR) is used to ramp the sample plate temperature from 40 to 95° C. at 0.5° C. increment, with 2 min equilibrate at each temperature. The negative of first derivative for the raw data is used to extract Tm."}, "[5]": {"target": "T2, recombinant human IL18-BP", "assay": "CMV recall assay", "format": "cell-based", "description": "Human MEL-624 overexpressing PD-L1 cells were thawed and loaded with CMV pp65 peptide (0.03 μg/ml). The cells were seeded at 100K/well in a 96 well plate and incubated for 30 minutes in 37° C., 5% C02 incubator with a combination rhIL-18 (30 ng/ml, R&D systems, 9124-IL/CF) and rhIL-18BP-Fc chimeric protein (2 μg/ml, R&D systems 119-BP) to allow IL-18+IL-18BP complex formation. After 30 minutes, anti-human IL-18BP (ADI-71722), anti-human PVRIG, anti-human TIGIT (anti-TIGIT), anti-human PD1 (Pembrolizumab) or relevant isotype control (hIgG4) were added to the culture to examine their capability to restore IL-18 activity. All antibodies were added to a final concentration of 10 μg/ml. 30 minutes post incubation with antibodies, thawed CMV-reactive T-cells were added to the culture. Cells and all added solutions were prepared in full IMDM (IMDM media with 10% human serum, 1% Glutamax, 1% MEM eagle, 1% sodium pyruvate, and 1% Penicillin-Streptomycin Solution) to a final volume of 200 μl/well. Plates were incubated for 24 hours in 37° C., 5% C02 incubator, after which the supernatant was collected for IFNγ secretion evaluation. All tests were done in triplicates and each repeated with three donors.\nMEL624 cells that overexpress PD-L1 were loaded with CMV peptide pp65. […] CMV-specific T-cells were then added to the culture and IFNg secretion was measured after an overnight incubation."}, "[6]": {"target": "T3, human IL-18-BP : human IL-18 complex (Homo sapiens, UniProt O95998)", "T3 construct": "purchased R&D systems 119-BP", "T3 sequence (O95998 31-194)": "T1 sequence (O95998 31-194)", "assay": "Competition ELISA with complex of soluble IL18-IL18BP", "format": "binding", "conditions": "ADI-66716 vs MAB1191", "description": "This assay was utilized to identify anti-human IL18BP Abs that inhibit the binding interaction between human IL18BP- and its counterpart, human IL-18. Commercial Ab anti human IL18BP (Clone 136007, cat. MAB1191, R&D systems) and ADI-66716 were tested for inhibition of human IL18BP protein binding to IL-18 by ELISA. Human IL18BP antibody (cat.AF 119, R&D) was coated on the wells of a high binding plate overnight at 4° C. (1 ug/ml, 100 μl/well volume). Plates were washed three times with PBS-T buffer (1×PBS pH 7.4, 0.05% Tween20) incubated with 250 μL blocking buffer (2.5% skim milk in PBS) at room temperature (RT) for 2 hr. Blocking buffer was removed and plates were washed three times with PBS-T buffer. Complex pre-formed 1 hour at 37° C. with 0.25 nM human IL-18-BP (R&D, cat. 119BP) and 3 nM Human IL-18 Biotin (9124-IL, R&D) in 1% BSA in PBS buffer. Complex was incubated for 2 hrs at RT together with anti-human IL18BP Abs (in 1% BSA in PBS buffer two times serially diluted. 4-0.06 μg/ml, 100 μL/well volume). Peroxidase Streptavidin, Jackson, cat. 016-030-084 1:1000 in 2.5% skim milk in PBS was added (100 μL/well) for 1 hr at RT. Plates were washed three times with PBS-T buffer (1×PBS pH 7.4, 0.05% Tween20). […] The HRP reaction was stopped by adding 50 μL 1N HCl and absorbance signals at 450 nm were read on a luminescence Reader-EnSpire (Perkin Elmar). […]"}, "[7]": {"test_system": "B16/Db-hmgp100 melanoma model", "assay": "B16/Db-hmgp100 syngeneic tumor model", "conditions": "10 mg/kg from day 4", "quoted_text": "B16/Db-hmgp100 cells were kindly provided by Dr. Hanada et al. (HHS agency) and were licensed from NIH. B16/Db-hmgp100 cells were generated by double transduction of B16F10 with H-2Db and a retrovirus that encodes chimeric mouse gp100 that is comprised of the human gp10025-33 and the rest of mouse gp100. Cells were cultured in RPMI 1640 (Biological Industries, 01-100-1A) with 10% FBS (Biological Industries, 04-127-1A), and 100 g/mL penicillin/streptomycin (Biological Industries, 03-031-1B), 1% Glutamax (Life technologies, 35050-038), 1% Sodium pyruvate (Biological Industries, 03-042-1B), 0.01% 2-mercaptoethanol (Life technologies, 31350-010), 10 μg/ml Blasticidin (InvivoGen, ant-bl-05). 1×10^5 B16/Db-hmgp100 cells subcutaneously into the back right flank of mice.\nIn both CT26 and B16/Db-hmgp100 models mAb administration started at day 4 (mono treatment) or day 7 post tumor inoculation when tumors were at volume of 30-50 mm^3 (combo treatment); and was given intra-peritoneal (i.p.) in a final volume/injection of 200 μl, for 3 wks for a total of 6 administrations. Tumor growth was measured with electronic caliper every 2-3 days and was reported as 0.5×W^2×L mm^3. […]\nAt day 4 post tumor inoculation mice were treated with mAbs (as detailed below) injected on day 4, 7, 11, 14, 18 and 21 post inoculation. Tumor growth was measured with caliper every 2-3 days. […]"}, "[8]": {"test_system": "whole blood", "assay": "Whole blood loop assay (ID.Flow)", "format": "cell-based, human", "conditions": "blood of six healthy volunteers, 24 hr", "description": "Flow, an ex vivo system that mimics the human blood circulation. Fresh whole blood was taken from six healthy volunteers and immediately transferred to a whole blood loop system. The test items were administered, and the blood was set to circulate at 37° C. to prevent clotting. Blood samples collected at the 24 hr time point were analyzed for hematology and flow cytometry parameters and then processed to plasma for cytokine analysis. The anti-CD52 antibody Alemtuzumab was included as a reference antibody with manageable cytokine release in the clinic."}},
  "note": "Numbering of substitutions follows the chain as printed.",
  "data": [
    {"molecule": "B1", "values": [
      {"measurement": "SEC-HPLC, % monomer", "setting": "[1]", "value": 95.9, "unit": "%"},
      {"measurement": "Blocking effect on binding of human IL18BP to human IL-18", "setting": "[2]", "value": "superior to Biolegend Ab"},
      {"measurement": "IFNγ secretion from TILs", "setting": "[3]", "value": "fully restore IL-18 activity"},
      {"measurement": "Fab Tm (DSF, ° C.)", "setting": "[4]", "value": 73.0, "unit": "°C"},
      {"measurement": "IFNγ secretion by CMV-reactive T-cells, as mono", "setting": "[5]; 10 μg/ml, rhIL-18 30 ng/ml + rhIL-18BP 2 μg/ml", "value": "fully restore IFNγ secretion"},
      {"measurement": "IFNγ secretion by CMV-reactive T-cells, in combination", "setting": "[5]; combined with Pembrolizumab, anti-PVRIG or anti-TIGIT, each 10 μg/ml, vs mono", "value": "in a more potent manner"}
    ]},
    {"molecule": "B2", "values": [
      {"measurement": "Blocking of IL18-IL18BP complex formation", "setting": "[6]", "value": "superior blocking effect to R&D antibody"}
    ]},
    {"molecule": "B3", "values": [
      {"measurement": "Tumor growth, anti-PVRIG monotherapy", "setting": "[7]", "value": "comparable tumor growth to mice treated with isotype control mAbs"}
    ]},
    {"molecule": "B4", "values": [
      {"measurement": "SEC-HPLC, % monomer", "setting": "[1]", "value": 97.6, "unit": "%"},
      {"measurement": "Signs of systemic immune activation, in combination with Nivolumab", "setting": "[8]", "value": "did not show signs of systemic immune activation"},
      {"measurement": "Signs of systemic immune activation, as mono", "setting": "[8]; hematology, flow cytometry, cytokines", "value": "did not show signs of systemic immune activation"},
      {"measurement": "Fab Tm (DSF, ° C.)", "setting": "[4]", "value": 71.5, "unit": "°C"}
    ]}
  ]
}
